# Test results: patent US20260028400A1
# Molecular target: ROR1 expressed on cell surface (Jeko-1 cell line, AMB-LC-0003T and AMB-LC-0002T patient-derived lung cancer cells) (human) (UniProt Q01973)
# Test: cell-based or functional assay
# Chain of ROR1 expressed on cell surface (Jeko-1 cell line, AMB-LC-0003T and AMB-LC-0002T patient-derived lung cancer cells) (human) (Q01973 30-937): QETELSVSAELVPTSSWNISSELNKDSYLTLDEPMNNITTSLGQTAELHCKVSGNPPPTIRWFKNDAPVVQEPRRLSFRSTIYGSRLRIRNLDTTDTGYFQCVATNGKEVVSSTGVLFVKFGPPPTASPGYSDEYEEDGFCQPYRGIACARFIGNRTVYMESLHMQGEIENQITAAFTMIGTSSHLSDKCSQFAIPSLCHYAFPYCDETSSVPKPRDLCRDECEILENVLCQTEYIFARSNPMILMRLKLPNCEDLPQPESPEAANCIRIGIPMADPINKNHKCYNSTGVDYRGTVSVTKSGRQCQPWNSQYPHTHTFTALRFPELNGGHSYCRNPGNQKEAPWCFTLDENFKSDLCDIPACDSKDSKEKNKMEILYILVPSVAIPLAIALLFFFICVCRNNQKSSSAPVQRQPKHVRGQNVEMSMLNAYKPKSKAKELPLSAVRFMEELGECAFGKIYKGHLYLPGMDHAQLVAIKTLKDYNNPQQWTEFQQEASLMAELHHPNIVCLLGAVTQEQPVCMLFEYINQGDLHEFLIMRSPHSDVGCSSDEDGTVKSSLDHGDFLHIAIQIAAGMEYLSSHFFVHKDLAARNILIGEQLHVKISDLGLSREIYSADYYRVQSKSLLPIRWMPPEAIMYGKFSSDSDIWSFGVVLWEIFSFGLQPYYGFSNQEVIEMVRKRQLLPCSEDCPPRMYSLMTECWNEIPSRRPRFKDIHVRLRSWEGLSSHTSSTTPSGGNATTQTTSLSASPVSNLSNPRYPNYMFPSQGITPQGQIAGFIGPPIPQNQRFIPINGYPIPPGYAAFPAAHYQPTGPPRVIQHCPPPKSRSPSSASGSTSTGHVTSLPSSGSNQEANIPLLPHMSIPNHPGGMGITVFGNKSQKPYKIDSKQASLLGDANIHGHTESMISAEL
substance,measurement,value
UC961-vc-PAB-MMAE (antibody),"Fold Change of IC50, AMB-LC-0002T/AMB-LC-0003T",11.1 fold
same,"IC50 (nM), spheroid volume, AMB-LC-0002T (low ROR1 expression)",282 nM
same,"IC50 (nM), spheroid volume, AMB-LC-0003T (high ROR1 expression)",25.4 nM
